Changes are numbered by the printed parent chain. One block for each binder: values may come before it.
Assays:
[1] = target: T1, mECD: full-length extracellular region of mouse MuSK (E22 to T494) with C-terminal Avi- and His6-tags (mouse, UniProt Q61006 22-494, biotinylated in vitro using the BirA enzyme); assay: bead-binding assay, IgG format: biotinylated antigen on streptavidin beads, flow cytometry, 1:1 fit; average ± s.d., n=3
T1 construct: range 22-494; also called mouse ECD; not shown: Avi- and His6-tags
T1 sequence (looked up): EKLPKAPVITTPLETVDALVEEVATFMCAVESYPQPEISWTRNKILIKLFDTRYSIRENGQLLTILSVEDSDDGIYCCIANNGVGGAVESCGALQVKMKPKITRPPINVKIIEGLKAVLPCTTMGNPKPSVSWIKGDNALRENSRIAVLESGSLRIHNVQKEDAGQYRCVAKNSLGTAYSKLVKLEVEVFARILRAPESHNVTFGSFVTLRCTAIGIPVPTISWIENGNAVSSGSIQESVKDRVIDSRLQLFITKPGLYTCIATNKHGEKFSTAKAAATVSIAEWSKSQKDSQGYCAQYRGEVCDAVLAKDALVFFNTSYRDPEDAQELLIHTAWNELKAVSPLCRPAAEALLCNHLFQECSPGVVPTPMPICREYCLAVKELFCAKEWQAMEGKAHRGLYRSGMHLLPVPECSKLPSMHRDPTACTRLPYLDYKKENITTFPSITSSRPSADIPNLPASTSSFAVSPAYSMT

[2] = target: T2, mFz: Fz domain and C-terminal flanking sequence of mouse MuSK (D307 to T494) with C-terminal Avi- and … (mouse, UniProt Q61006 307-494, limits assumed, biotinylated in vitro using the BirA enzyme); assay: as above
T2 construct: also called mouse Fz; not shown: Avi- and His6-tags
T2 sequence (looked up): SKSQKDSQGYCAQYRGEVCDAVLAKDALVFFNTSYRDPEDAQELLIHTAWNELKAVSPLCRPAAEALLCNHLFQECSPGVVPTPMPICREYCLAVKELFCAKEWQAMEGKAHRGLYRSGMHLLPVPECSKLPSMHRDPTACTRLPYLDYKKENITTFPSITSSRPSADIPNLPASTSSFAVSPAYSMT

[3] = target: T3, hFz: Fz domain and C-terminal flanking sequence of human MuSK (K314-T495) with C-terminal Avi- and His6-tags (human, UniProt O15146 314-495, biotinylated in vitro using the BirA enzyme); assay: as above
T3 construct: also called human Fz; not shown: Avi- and His6-tags
T3 sequence: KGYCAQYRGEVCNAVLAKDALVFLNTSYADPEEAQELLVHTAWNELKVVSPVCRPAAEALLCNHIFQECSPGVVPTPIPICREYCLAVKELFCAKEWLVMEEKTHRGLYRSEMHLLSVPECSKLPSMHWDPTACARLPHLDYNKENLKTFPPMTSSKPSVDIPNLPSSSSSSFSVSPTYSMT

[4] = target: T4, hECD: full-length extracellular region of human MuSK (E22 to T495) with C-terminal Avi- and His6-tags (human, UniProt O15146 22-495, biotinylated in vitro using the BirA enzyme); assay: as above
T4 construct: also called human ECD; not shown: Avi- and His6-tags
T4 sequence: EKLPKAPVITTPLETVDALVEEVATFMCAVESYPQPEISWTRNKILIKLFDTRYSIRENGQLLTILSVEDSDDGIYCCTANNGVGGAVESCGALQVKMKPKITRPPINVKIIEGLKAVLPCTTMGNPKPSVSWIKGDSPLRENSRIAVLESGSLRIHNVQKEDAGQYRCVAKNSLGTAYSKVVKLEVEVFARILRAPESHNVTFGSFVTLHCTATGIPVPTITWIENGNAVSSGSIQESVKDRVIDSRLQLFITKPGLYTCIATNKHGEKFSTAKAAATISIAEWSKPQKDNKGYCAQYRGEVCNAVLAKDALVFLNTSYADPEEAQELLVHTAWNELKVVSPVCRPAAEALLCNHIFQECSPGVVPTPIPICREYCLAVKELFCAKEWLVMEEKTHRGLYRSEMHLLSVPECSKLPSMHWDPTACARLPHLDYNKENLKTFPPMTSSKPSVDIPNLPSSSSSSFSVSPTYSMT

human MuSK [5] = target: T5, human MuSK (human, UniProt O15146 24-495); assay: Biacore T200, MuSK on chip (200RU), 22.2 nM Fab, dissociation pH 5.5
T5 construct: Recombinant protein coated on ELISA plates (R&D Systems cat. 10189-MK) or on the Biacore chip; also called human muscle-specific tyrosine protein kinase; full length human MuSK
T5 sequence: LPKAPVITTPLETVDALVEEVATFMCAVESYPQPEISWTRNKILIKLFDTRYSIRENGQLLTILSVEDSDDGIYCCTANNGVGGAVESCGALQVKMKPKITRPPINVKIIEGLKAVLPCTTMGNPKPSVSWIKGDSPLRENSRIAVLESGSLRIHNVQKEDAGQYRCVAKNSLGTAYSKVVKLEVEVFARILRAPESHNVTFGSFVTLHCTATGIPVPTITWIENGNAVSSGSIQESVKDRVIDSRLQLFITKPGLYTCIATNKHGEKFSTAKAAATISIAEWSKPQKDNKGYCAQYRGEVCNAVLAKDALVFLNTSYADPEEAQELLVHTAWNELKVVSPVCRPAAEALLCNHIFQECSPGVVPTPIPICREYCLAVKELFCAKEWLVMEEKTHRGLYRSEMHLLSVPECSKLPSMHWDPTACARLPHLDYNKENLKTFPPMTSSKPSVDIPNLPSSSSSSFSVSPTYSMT
Method: (§1) In order to study pH dependent binding of the antibodies described herein to MuSK, a Biacore T200 was used. Briefly, a CMS chip was coated with human and mouse MuSK (200RU) and 22.2 nM of Fab was applied and kinetic parameters calculated. Association was done at pH7.4, dissociation was done at pH 7.4 and also at pH 5.5. The following Fabs were tested, X2, X2m4, X3, X9, X17, 3B2 and 3B2g2m1 (Table 10 and FIG. 23). […] Binding affinity at pH 5.5 is very low, resulting in a rapid dissociation at endosomal pH allowing 3B2g2m1 to recycle.

mouse MuSK [6] = target: T6, mouse MuSK (mouse, UniProt Q61006 22-494, limits assumed); assay: as above
T6 construct: Coated on ELISA plates or on the Biacore chip; also called full length mouse MuSK; mouse MuSK (in house produced in HEK293 cells)
T6 sequence (looked up): T1 sequence (looked up)
Method: as §1

human MuSK [7] = target: T5, human MuSK; assay: Biacore T200, off rate at pH 5.5 against pH 7.4
Method: as §1

mouse MuSK [8] = target: T6, mouse MuSK; assay: Biacore T200, off rate at pH 5.5 against pH 7.4
Method: as §1

human MuSK [9] = target: T5, human MuSK; assay: Biacore T200, MuSK on chip (200RU), 22.2 nM Fab, dissociation pH 7.4
Method: as §1

mouse MuSK [10] = target: T6, mouse MuSK; assay: as above
Method: as §1

B2: 3B2g2m1 Fab (Fab, V domains shown)
VH: EVQLLESGGGLVQPGGSLRLSCAASGFTFSDYGMSWVRQAPGKGLEWVSAIPWSGGSTYYKESVKGRFTISRDNSKNTLYLQMNSLRAEDTAVYYCAKRSGRIAFGALDAWGQGTLVTVSS
VL: QTVVTQEPSFSVSPGGTVTLTCGLSSGSVTSSNYPDWYQQTPGQAPRTLIYSTDSRHSGVPDRFSGSILGNKAALTITGAQADDESDYYCGLYSYSGSKNYVFGGGTKLTVL
notes: Fab format
koff (human MuSK [5]): 0.0288 s⁻¹
koff (mouse MuSK [6]): 0.0679 s⁻¹
Ratio pH 5.5/7.4 of off rate (human MuSK [7]): 6.1
Ratio pH 5.5/7.4 of off rate (mouse MuSK [8]): 8.9
koff (human MuSK [9]): 0.00472 s⁻¹
koff (mouse MuSK [10]): 0.00766 s⁻¹

B3: X2m4 Fab (Fab, V domains shown)
VH: EVQLVESGGGLVQPGGSLRLSCAASGFTVSSSSIHWVRQAPGKGLEWVASISSSYGSTSYADSVKGRFTISADTSKNTAYLQMNSLRAEDTAVYYCARSEGDRYVSGYSGLDYWGQGTLVTVSS
VL: DIQMTQSPSSLSASVGDRVTITCRASQSVSSAVAWYQQKPGKAPKLLIYSASSLYSGVPSRFSGSRSGTDFTLTISSLQPEDFATYYCQQSGVWLITFGQGTKVEIK
notes: Fab format
koff (human MuSK [5]): 0.00586 s⁻¹
koff (mouse MuSK [6]): 0.00416 s⁻¹
Ratio pH 5.5/7.4 of off rate (human MuSK [7]): 0.7
Ratio pH 5.5/7.4 of off rate (mouse MuSK [8]): 1.2
koff (human MuSK [9]): 0.00867 s⁻¹
koff (mouse MuSK [10]): 0.00337 s⁻¹

The next lines start with the values.

Kd [1]: 1.04 nM
Kd [2]: 0.68 nM
Kd [3]: 0.56 nM
Kd [4]: 0.86 nM
B1: hIgG1-X17 (antibody, V domains shown)
VH: EVQLVESGGGLVQPGGSLRLSCAASGFTISYSSIHWVRQAPGKGLEWVASIYSSSGSTYYADSVKGRFTISADTSKNTAYLQMNSLRAEDTAVYYCARGDHGYYVFGYLGMDYWGQGTLVTVSS
VL: DIQMTQSPSSLSASVGDRVTITCRASQSVSSAVAWYQQKPGKAPKLLIYSASSLYSGVPSRFSGSRSGTDFTLTISSLQPEDFATYYCQQSYKPGALITFGQGTKVEIK
notes: human IgG1 Fc containing LALA mutations; also called hIgG-X17; X17 in human IgG1 format

koff (human MuSK [5]): 0.00083 s⁻¹
koff (mouse MuSK [6]): 0.00105 s⁻¹
Ratio pH 5.5/7.4 of off rate (human MuSK [7]): 1.4
Ratio pH 5.5/7.4 of off rate (mouse MuSK [8]): 7.1
koff (human MuSK [9]): 0.00059 s⁻¹
koff (mouse MuSK [10]): 0.00015 s⁻¹
B4: X9 Fab (Fab, V domains shown)
VH: EVQLVESGGGLVQPGGSLRLSCAASGFTFSSSSIHWVRQAPGKGLEWVASIYSSSGSTYYADSVKGRFTISADTSKNTAYLQMNSLRAEDTAVYYCARSGGEFYITSYYGMDYWGQGTLVTVSS
VL: B3 VL with G92S, V93S, W94S
notes: Fab format

Reference: US20230151091A1 (NEW YORK UNIVERSITY, published 2023)
